This note sets out measurements from US10967068B2, “Stability-modulating linkers for use with antibody drug conjugates” (priority 2014, dated 2021).

The series can be described thus: In Vitro Stability Assay—Mouse Plasma. It counts as in vitro ADME. The conditions noted are these: for Conjugate stability (%): % DAR remaining after plasma 3 or 4.5 days; for DAR: before plasma incubation.

*1 amine or outer side, *2 acyl side, *3 side chain or, on linkers, in order; H or OH if unused. Where a SMILES comes first, the peptide text is derived from it. [ ]: non-standard residue; d: D form. The star is where a group is joined. Dolaproine = CO[C@@H]([C@@H]1CCCN1)[C@@H](C)C(=O)O; Dil = CC[C@H](C)[C@H](NC)[C@@H](CC(=O)O)OC; Imidazole4carbonyl = O=C(c1cnc[nH]1)*; PABC = O=C(OCc1ccc(N[*:1])cc1)[*:2]; Doe = c1ccc(C[C@H](N*)c2nccs2)cc1; Cit = NC(=O)NCCC[C@H](N)C(=O)O; PhAc = O=C(Cc1ccccc1)*; Aib = CC(C)(N)C(=O)O; Piv = CC(C)(C)C(=O)*

For the molecule `CC[C@H](C)[C@@H]([C@@H](CC(=O)N1CCC[C@H]1[C@H](OC)[C@@H](C)C(=O)N[C@@H](Cc1ccccc1)c1nccs1)OC)N(C)C(=O)[C@@H](NC(=O)C(C)(C)NC(=O)OCc1ccc(NC(=O)[C@H](CCCNC(N)=O)NC(=O)[C@@H](NC(=O)[C@H](CCCCN)NC(=O)C(C)(C)C)C(C)C)cc1)C(C)C` [Example 2, N˜2˜-(2,2-Dimethylpropanoyl)-L-lysyl-L-valyl-N-{4-[(8S,11S,12R)-11-[(2S)-butan-2-yl]-12-(2-{(2S)-2-[(1R,2R)-1-methoxy-2-methyl-3-oxo-3-{[(1S)-2-phenyl-1-(1,3-thiazol-2-yl)ethyl]amino}propyl]pyrrolidin-1-yl}-2-oxoethyl)-5,5,10-trimethyl-3,6,9-trioxo-8-(propan-2-yl)-2,13-dioxa-4,7,10-triazatetradec-1-yl]phenyl}-N˜5˜-carbamoyl-L-ornithinamide] (Piv-KV[Cit][PABC][Aib]V[Dil][Dolaproine]-Doe), under “attachment position L11B”, the “DAR after plasma incubation for 3 to 4.5 days” value amounted to 0, the “Conjugate stability (%)” value is listed as 0% and the DAR came to 1.54.
For `CC[C@H](C)[C@@H]([C@@H](CC(=O)N1CCC[C@H]1[C@H](OC)[C@@H](C)C(=O)N[C@@H](Cc1ccccc1)c1nccs1)OC)N(C)C(=O)[C@@H](NC(=O)C(C)(C)NC(=O)OCc1ccc(NC(=O)[C@H](CCCNC(N)=O)NC(=O)[C@@H](NC(=O)[C@H](CCCCN)NC(=O)Cc2ccccc2)C(C)C)cc1)C(C)C` [Example 3, N˜2˜-(Phenylacetyl)-L-lysyl-L-valyl-N-{4-[(8S,11S,12R)-11-[(2S)-butan-2-yl]-12-(2-{(2S)-2-[(1R,2R)-1-methoxy-2-methyl-3-oxo-3-{[(1S)-2-phenyl-1-(1,3-thiazol-2-yl)ethyl]amino}propyl]pyrrolidin-1-yl}-2-oxoethyl)-5,5,10-trimethyl-3,6,9-trioxo-8-(propan-2-yl)-2,13-dioxa-4,7,10-triazatetradec-1-yl]phenyl}-N˜5˜-carbamoyl-L-ornithinamide] (PhAc-KV[Cit][PABC][Aib]V[Dil][Dolaproine]-Doe) the same measures were 0, 0% and 1.66.
With `CC[C@H](C)[C@@H]([C@@H](CC(=O)N1CCC[C@H]1[C@H](OC)[C@@H](C)C(=O)N[C@@H](Cc1ccccc1)c1nccs1)OC)N(C)C(=O)[C@@H](NC(=O)C(C)(C)NC(=O)OCc1ccc(NC(=O)[C@H](CCCNC(N)=O)NC(=O)[C@@H](NC(=O)[C@H](CCCCN)NC(=O)c2cnc[nH]2)C(C)C)cc1)C(C)C` [Example 4, N˜2˜-(1H-Imidazol-5-ylcarbonyl)-L-lysyl-L-valyl-N-{4-[(8S,11S,12R)-11-[(2S)-butan-2-yl]-12-(2-{(2S)-2-[(1R,2R)-1-methoxy-2-methyl-3-oxo-3-{[(1S)-2-phenyl-1-(1,3-thiazol-2-yl)ethyl]amino}propyl]pyrrolidin-1-yl}-2-oxoethyl)-5,5,10-trimethyl-3,6,9-trioxo-8-(propan-2-yl)-2,13-dioxa-4,7,10-triazatetradec-1-yl]phenyl}-N˜5˜-carbamoyl-L-ornithinamide] (Imidazole4carbonyl-KV[Cit][PABC][Aib]V[Dil][Dolaproine]-Doe), under “attachment position H16”, the “DAR after plasma incubation for 3 to 4.5 days” value was 1.89, the “Conjugate stability (%)” value is on record as 100% and the DAR is recorded as 1.84.
